The record followed here is article PMC12167710 (Nature Biotechnology, 2024).

Assay [1] addresses T1, receptor-binding domain (RBD) of the wild-type SARS-CoV-2 spike protein (SARS-CoV-2, UniProt P0DTC2 333-527).
T1 construct: also called SARS-CoV-2 RBD
Nature of the assay: BLI. The note with it: both partners purified.

For assay [2], the target named is T1, receptor-binding domain (RBD) of the …. Briefly: cell-based or functional assay.

B1: hRBD15 (antibody, V domains shown)
VH: QVQLVQSGAEVKKPGASVKVSCKASGYTFTSQYMHWVRQAPGQGLEWMGIINPSGGSTSYAQKFQGRVTMTSDTSTSTVYMELSSLRSEDTAVYYCARDIYFVPARGGFDPWGQGTLVTVSS
VL: EIVLTQSPGTLSLSPGERATLSCRASQSIISSYLAWYQQKPGQAPRLLIYGASSRATGIPDRFSGSGSGTDFTLTISRLEPEDFAVYYCQQSGSAPRYTFGQGTKLEIK
Broadly, the Kd is the constant that tells how readily two partners part at equilibrium. A high value points to lower affinity. B1 gave a Kd in assay [1] of 0.0382 nM. In assay [2], this molecule yielded an other of 64400 ng/mL.

B2: hRBD8 (antibody, V domains shown)
VH: QVQLQQWGAGRLKPSETLSLTCAVYGGSFSGYYWSWIRQPPGKGLEWIGEIDHSGSTNYNSSLKSRVTISVDTSKKWFSLKLSSVTAADTAVYYCARAHLIGDCGGGRCYSGPDPSNWFDPWGQGTLVTVSS
VL: SSELTQDPAVSVALGQTVRITCQGDSLRSYYASWYQQKPGQAPILVIYGKDNRPSGIPDRFSGSSSENTASLTITGAQAEDEADYYCNCRDTSGNHPVFGGGTKLTVL
Molecule B2 returned a Kd in assay [1] of 9.74 nM. Moreover, the other in assay [2] turned out to be 49.6 ng/mL.

B3: hRBD9 (antibody, V domains shown)
VH: EVQLVESGGGLIQPGGSLRLSCAASGLTVSSNYMNWVRQAPGKGLEWVSVLYSGGSTYYADSVKGRFTISRDNSKNTLYLQMNSLRAEDTAVYYCARDLVAYGMDVWGQGTTVTVSS
VL: DIQLTQSPSFLSASVGDRVTITCRASQGISSDLAWYQQKPGKAPKLLIYAASTLQSGVPSRFSGSGSGTEFTLTISSLQPEDFATYYCQQLNSYPTFGQGTRLEIK
On to B3, for which binding in assay [1] was characterised by a dissociation constant (Kd) of 0.126 nM. The same molecule displayed an other in assay [2] of 20.2 ng/mL.

B4: hRBD12 (antibody, V domains shown)
VH: EVQLVESGGGLVQPGGSLRLSCAASGLTVSSNYMSWVRQAPGKGLEWVSVIYSGGSTYYADSVKGRFTISRDNSKNTLYLLMNSLRAEDTAVYYCARDLQQLGGMDVWGQGTTVTVSS
VL: not shown
Turning to B4, binding in assay [1] was put at a Kd of 0.219 nM. In assay [2], the other turned out to be 20.8 ng/mL.

B5: hRBD13 (antibody, V domains shown)
VH: QVQLVESGGGVVQPGRSLRLSCAVSGFTFRNYGMDWVRQAPGKGLEWVAVISYDGSNKYYADSVKGRFTISRDNSKNTLFLHLNSLRAEDTAVYYCAKAGGGPYCGGGNCYMHYFDYWGQGTQVTVSS
VL: DIQMTQSPSSLSASVGDRVTITCQASQDINNYLNWYQQKPGKAPKLLIYDASNLETGVPLRFSGSGSATHFSFTISSLQPEDIATYYCQQYDHLPCTFGQGTKLEIR
B5: the Kd in assay [1] is less than 0.001 nM. In assay [2], this molecule showed an other of 48600 ng/mL.

B6: hRBD3 (antibody, V domains shown)
VH: QLQLQESGPRLVRPSETLSLTCTVSGGSINSGTHYCGWIRQSPGKGLEWIGSIYYSGTTYYNPSLKSRVTISVDTSKNQFSLKLSSVTAADTAVYFCARRRAGSYFKDLSDYWGQGTLVTVSS
VL: NFMLTQPHSVSESPGKTVTISCTRSSGSIASNYVQWYQQRPGGAPTTVIYEDNQRPSGVPDRFSGSIDTSSNSASLTISGLKTDDEADYYCQSYDSTNHEVFGGGTKLTVL
Consider B6, for which the Kd in assay [1] is less than 0.001 nM. The molecule further registered an other in assay [2] of 11.6 ng/mL.

B7: hRBD4 (antibody, V domains shown)
VH: QLQLQESGPGLVKPSETLSLTCTVSGGSISTSSHYCAWIRQPPGKGLEWIGSIYYRGSTYYNPSLKSRVTISVDTSKNHFSLKLSSVTAADTAVYYCARRRAGSYYKDLFDYWGQGTLVTVSS
VL: NFMLTQPHSVSESPGKTVTISCTRSSGSIASNYVQWYQQRPGSAPTTVIYEDNQRPSGVPDRFSGSIDSSSNSASLTISGLKTEDEADYYCQSYDNSNHEVFGGGTKLTVL
The molecule B7 had a Kd in assay [1] of 0.491 nM. In assay [2], the other is 8.9 ng/mL.

B8: hRBD2 (antibody, V domains shown)
VH: QVQLVQSGSELKKPGASVKVSCKASGYTFSNYAINWVRQAPGQGLEWMGWINTNTGHPTYAQGFTGRFVFSLDASVTTAYLQISSLKAEDTAVYYCARVGRTAIAALDDAFDIWGQGTMVTVSS
VL: not shown
Turning to B8, the affinity in assay [1], expressed as Kd, was 0.0652 nM. Besides, the other in assay [2] worked out at 91.7 ng/mL.

B9: hRBD5 (antibody, V domains shown)
VH: QVQLQQWGAGLLQPSETLSLTCAVYGGSFSDYYWSWIRQPPGRGLEWIGEIDHSGSTNYNPSLKSRVTILVDTSKNQFSLKLSSVTAADTAVYYCARAHLIGHCGDGGCYSGPDPSSWFDPWGQGTLVIVSS
VL: SSELTQDPAVSVALGQTVRITCQGDSLRRYFASWYQQKPGQAPVLVIYGKNIRPSGIPDRFSGSSSGNTGSLTITGAQAEDEADYYCHSRDSSGHHPLFGGGTKLTVL
Take B9: in assay [1], the Kd was 0.127 nM. The other in assay [2] was determined as 10.7 ng/mL.

B10: hRBD6 (antibody, V domains shown)
VH: QVQLQQWGAGLLKPSETLSLSCAVYGGAFSDYYWSWIRQPPGKGLEWIGEIDLSGSTNYNPSLKSRVTISVDTSKNQFSLKLISVTAADTAVYYCARTHLIGYCSGGSCYSGPDPSNWFDPWGQGTLVTVSS
VL: SSELTQDPAVSVALGQTVRITCQGDSLRSYYASWYQQKPGQAPVLVIYGKNNRPSGIPDRFSGSSSGNTASLTITGAQAEDEADYYCNSRDTSGHHPVFGGGTKLTVL
Consider B10, for which the affinity in assay [1], expressed as Kd, was 5.09 nM. The same molecule showed an other in assay [2] of 32.7 ng/mL.
